From the nanobody polyreactivity screen of Harvey et al. (2022) come the findings set out here.

The data set can be described thus: yeast display, Sf9 membrane polyspecificity reagent, FACS + sequencing; frameworks hold sequencing errors. Put shortly: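 Nanobodies from a synthetic yeast display library (Saccharomyces cerevisiae BJ5465), induced 36–48 hours with galactose, were stained 1 hour at 4 °C with 10% biotinylated, detergent-solubilized Sf9 membrane reagent, enriched on streptavidin microbeads, then FACS-sorted. Anti-HA (expression) and streptavidin (reagent binding) fluorescence set low and high (top ~1%) gates. Polyreactivity labels come from the gate of origin. Genes were colony-PCR amplified, MiSeq 2 × 250 sequenced and filtered by CDR length.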
For “QVQLVESGGGLVQAGGSLRLSCAASGSTFDYYDMGWYRQAPGKARELVAAISSGGDSTYYADSVKGRFTISRDNAKNTVYLQMNSLKPEDTAVYYCAAAVYYGQSVWYYYWGQGTQVTVSS”, the “polyreactivity (PSR sort gate)” value is listed as “high polyreactivity”. Next, “QVQLVESGGGLVQAGGSLRLSCAASGFTFSRYAMGWYRPAPGKERELVAAITSSGGSTYYADSVKGRFTISRDNAKNTVYLQMNSLKPEDTAVYYCAAGKYTASNGYGYWGQGTQVTVSS”: “high polyreactivity”; “QVQLVESGGGLVQAGGSLRLSCAASGRIFRNYGMGWYRQAPGKERELVATITWTGGSTFYADSVKGRFTISRDNAKNTVYLQMNSLKPEDTAVYYCAAEWHRLIYFSPRYDFDYWGQGTQVTVSS”: “low polyreactivity”. Next, “QVQLVESGGGLVQAAGSLRLSCAASGSIFYNYAMGWYRQAPGKERELVAAITSGGITYYADSVKGRFTISRDNAKNTVYLQMNSLKPEYTAVYYCAAESLTGYGHYDYWGQGTQVTVSS”: “low polyreactivity”; “QVQLVESGGGLVQAGGSLRLTCAASGSIFGNAMGWYREAPGKEREIVAAISSSGSSTYYADSVKGRFTMSRDTAKNTVYLQMNSLKPADTAVYYCNKGSRRYHGYDYWGQGTQVTVSS”: “high polyreactivity”; “QVQLVESGGGVVQAGGSLRLSSAASGRIFQAYAMGWYRQAPGKEWELVAAISRSGGGTYYSDSVKGRFTISRDYAKNTVYLQMNSLKPEDTAVYYCNARGSTARGRGYWGQGTQVTVTS”: “high polyreactivity”.

Take “QVQLVESGGGLVQAGGSLRLSCAASGSIFSRYTMGWYRQPPGKERELVAAITSSGGRTYYADSVKGRFRISRDNAKNTVYLQLNSLKPVVTAVYYCAARIQKQQGYGYWGQGTQVTVSS”: the “polyreactivity (PSR sort gate)” value is given as “high polyreactivity”.

Take “QVQREESGGGLVQAGGSLRLSCAASGRTFRYYAMGWSRQAPGKERELVAAITSGGGTNYADSVKGRFTISRDNAKNTVYLQMNSLKPEDTAVYYCAADHVYYDYDYWGQGTQVNVSS”: the “polyreactivity (PSR sort gate)” value was “low polyreactivity”.

Take “QVQLVESGGGLVQAGGSLRLICAASGSTFDVNAMGWYRQAPGKERELVAAISWNSGSTYYADSVKGRFTISRDNAKNTVYLQMNSLKPEDTAVYYCAATYGTGRRSKYGYWGQGTQVTVSS”: the “polyreactivity (PSR sort gate)” value is recorded as “high polyreactivity”. Take “QVQLVESGGGLVQAGGSLRLSCAASGSIFWYNAMGWYRQAPGKESELVAAISWDGGSTYYADSVKGRFTISRDNAKNTVYLQMNSLKPEDTAVYYCNRVYIVWYTRYVVSGWYDYWGQGTEVTVSS”: the “polyreactivity (PSR sort gate)” value was “high polyreactivity”. Turning to “QVQLVESGGGLVQAGGSLRLSCDASGRPFRRNAMGWYRQAPGKERELVAAITLSGGRTYADSLKGRFTISRDNAKNTVYLQMNSLKPEDTAVYYCAASSPGFSYWYNGYEYWGEGTQVTVSS”, the “polyreactivity (PSR sort gate)” value is recorded as “high polyreactivity”. With “QLQLVESGGGLVQAGGSLRLSCAASGLTFYVYAMGWYRQAPCKERELVAAISSGGRTYYADSVKGRFTISRDNAKNTVYLQMNSLKPEDTAVYYCAAVRHRNYGYWGQGTQVTVSS”, the “polyreactivity (PSR sort gate)” value is “high polyreactivity”.

“QVQLVESGGGLVQAGGSLRLSCAATGSIFDLNSMGWYRQAPGKEREVVAAISSGGGTYYADSVKGRFTISRDNANNTVFLQMNSLKPEDTAVYYCIRVTYRSRGRDYWGQGNQVTVSS”: the “polyreactivity (PSR sort gate)” value is reported as “high polyreactivity”. As for “QVQLVESGVGLVQAGGSLRLSSAASGFTFIYYAMGWYRQAPGKERELVAAITSGGNTYYADSVKGRFTISRDNAKNTDYLQMNSLTPEDPAVYYCNKVPHREWVGGYDYWGQGTQVTVSS”, the “polyreactivity (PSR sort gate)” value was “low polyreactivity”. For “QVQLVESGGGLVQAGGSLRLSCAASGFIFPGYAMGWYRQAPGKERELVAAITRSGGSTYYADSVKGRFTISRDNAKNTVYLQMNSLKPEDTAVYYCAAYVSGYRWGYDYWGQGTQVTVSS”, the “polyreactivity (PSR sort gate)” value was “high polyreactivity”. As for “QVQRVESGGGLVQAGGSLRLSCAASGGIFDRYAMGWYRPAPGKERELVAVISGSVNTYADSVKGRFTISRDNAKNTVYLQMNSLKPEDTAVYYCATQFEGPSGFNYWGQGTQVTVSS”, the “polyreactivity (PSR sort gate)” value is recorded as “low polyreactivity”. On to “QVQLVESGGGLVQAGGSLRLSCAASGRTFSGYAMGWYRQAPGKERELVAAISNSGGNTYYADSVKGRFTISRDNAKNTVYLQMNSLKAEDTAVYYSAVDSSSPYDYWGQGTQVTVSS”, for which the “polyreactivity (PSR sort gate)” value is reported as “high polyreactivity”. Consider “QVHLVESGGGLVQAGGSLRLSCAASGSIFYYNTMGWYRQAPGKERELVAGISWGGGRTYYADSVKGRFTISRDNAKNTVYLQMNSLKPEDTAVYYCNARHRRLPSNGGYDYWGKGTQVTVSS”, for which the “polyreactivity (PSR sort gate)” value is listed as “high polyreactivity”. For the sequence “QVQLVESGGGLVQAGGSLRLSCAASGRTFVTYGMGWYRQAPGKERQLVAAISKRGSRTYYADSVKGRFTISRDNAKNTVYLQMNSLKPEDTAVYYCNAETYRTTYDYWGQGTQVTVSS”, the “polyreactivity (PSR sort gate)” value was “high polyreactivity”.

“QVQLVESGGGLVQAGGSLRLSCAASGFTFIDNTMGWYRQAPGKERELVAAISSDGRTNYAVSVKGRFTISRDNAKNTVYLQMNSLKAEDTAFYYCATEDNYWYVTGDLYHSAFYYWGQGTQVTVSS”: the “polyreactivity (PSR sort gate)” value was “low polyreactivity”. Consider “QVQLVESGGGLVQAGGSLRLSCAASGLNFSYYVMGWYRQAPGKERELVATITYSGGSTYYADSVKGRFTISRDNAKNTVYLQMNSLKPEDTAVYYFNADTGYVYSEYEYWGQGTQVTVSS”, for which the “polyreactivity (PSR sort gate)” value is “high polyreactivity”. On to “QVQHVESGGCLVQAGGSRRLSCAASVSIFIPNAMGWSRQAHGKERELVAAISWSGASTYYADSVKRRFTISRDNAKNTVYLQMISLKPEDTAVYYCAAYYAYRRGYDYWGQGTQVTVSS”, for which the “polyreactivity (PSR sort gate)” value is recorded as “high polyreactivity”. Consider “QVQLVESGGGLVQAGGSLRLSCAASGSIFWSNAMGWYRQAPGKEREFVATITNGTTTNYADSVKGRFTISRDNAKNTVYLQMNSLKPEDTAVYYCAVTGVYVKYDYWGQGTQVTVSS”, for which the “polyreactivity (PSR sort gate)” value is recorded as “low polyreactivity”. In the case of “QVQLVESGGGLVQAGGSLRLSCAASGRIFLDNTMGGYRQATGKERELVATISSGASTNYADSVKGRFTISRDNAKNTVYLQMNSLKPEDTGVYYCNARVGGYPLWYKKYYYWGQGTQVNVSS”, the “polyreactivity (PSR sort gate)” value is listed as “low polyreactivity”. Consider “KVQLVESGGGLVQAGGSLRLSCAASGTSSRYVMGLYRQSTGKERELVAAISWSGDSTYYADSVKGRFTISRDNAKNTVNLQMNSLKPEDTAVYYRAKDADFGLGATSYLEYDYWGQGTQVTVSS”, for which the “polyreactivity (PSR sort gate)” value is reported as “low polyreactivity”. For “QVQLVESGGGLVQAGGRLRLSCAASGSTFYRYAMGMYRPAPGKERELVAAINRSGVTTYYADSVKGRFTISRDNAKNTVYLQMNSLKPEDTAVYYCAAVLGRGLDYYYLGQGTQVTVSS”, the “polyreactivity (PSR sort gate)” value was “high polyreactivity”. As to “QVQLVESGGGLVQAGGSLRLSCAASGSTFTYYAMGWYRQAPGNEREFVASLTYRGGRTNYADSVKGRFTISRDNATNTVYLQMNRQKPEDTAVYYCAARQRWTYAYDYWGQGTQVTVSS”, the “polyreactivity (PSR sort gate)” value is on record as “high polyreactivity”. For “QVQLVESGGGLVQAGGSLRISCAPSGRTFGINAMGWYRQAPGKERELVAVISFGDGGTYYADSVKGRFTISRDNAKNTVYLQMNSLKPEDTAVYYCATDYQSTSVWGGHFVINPYDYWGQGTQVTVSS”, the “polyreactivity (PSR sort gate)” value is listed as “low polyreactivity”. Regarding “QVQLVESGGGLVQAGGSLRLSCAASGSTFPYYVMGRYRQAPGKERELVAAITRSTGTTYYADSVKGRFTISRDNAKNTVYLQMNSLKPEDTAVYYCAARSSSSPRWYGGDYWGQGTQVTVSS”, the “polyreactivity (PSR sort gate)” value is “low polyreactivity”. For “QVQLVESGGGLVQAGGSLRLSCAASGRIFPYYAMGWSRQAPGKERELVAAITSGGTTYYADSVKGRFTISRDNAKNTVYLQMNSLKPEDTAVYYCEYDYWGQGTQVTVSS”, the “polyreactivity (PSR sort gate)” value is on record as “low polyreactivity”. As to “QVQLVESGGGLVQAGGSLRLSCAASGSIFIRNAMGWYRQAPGKERELVAANSGSGSSTYYADSVKGRFTNSRDNAKNTVYLQMNSVKPEDTAVYYCNTDRTLSYQYGGYDYWGLGTQVTVSS”, the “polyreactivity (PSR sort gate)” value is reported as “low polyreactivity”.

“QVQLVESGGGLVQAGGSLRLTCAASGLIFGVYAMGWYRQAPGKEMELVAGISWRGSSTYYADSVKGRFTISRDYAKNTVYLQMNSLIPEDTAVYYCADVRRPSRHAYGGTAVYYWGQGTQVTVSS”: the “polyreactivity (PSR sort gate)” value is on record as “high polyreactivity”. On to “QVQLVESGGGLVQAGGSLRLSCAASGRTFRYYTMGWYRQAPGKERELVAAITRNGGRTYYADSVKGRFTISRDNAKNTVYLQMNSLKPEDTAVYYCAAGTYDGGYHYDYWGQGTQVTVSS”, for which the “polyreactivity (PSR sort gate)” value is given as “high polyreactivity”. For “QVQLVESGGGLVQAGGSLRLSSAASGSTFRTYTMGWYRQAPGKERELVASITSGGRTYYADSVKGRFTISRDNAKNTVYLQMNSMKPEDTAVYYCAADVCKLYDYWGQGTQVTVSS”, the “polyreactivity (PSR sort gate)” value is listed as “low polyreactivity”. In the case of “QVQLVESGGGLDQAGGSLRLSCAASGSIFVPYAMGGYRQAPGKERELVAAITSGDSTYYADSVKGRFTISRDNAKNNVYLQMNSLKPEDTAVYYCAADIRPTLSLLSLFDYEYWGQGTQVTVSS”, the “polyreactivity (PSR sort gate)” value is recorded as “low polyreactivity”. To “QVQLVESAGGGVQAGGSLRLSCPASGIIFVPNTMGWYRQAPGKEREFVASISRRGGNTNYADSVKGRFTISRDNAKNTVYLQMNSLKPEDTAVYYCAKYSSSEGKYDYWGQGTQVTVSS” belongs “high polyreactivity”; to “QVQLVESGGGLVQAGGSLRLSCAASGSTFPTNAMGWYRQAPGKERELDAGITEGGSSTYYADSVKGRFTISRDYAKNTVYLQMNSLKPEDTAVYYCAADVLWYGPFWVRQDDYWGQGTQLTVSS”, “high polyreactivity”. As for “QVQLVESGGGLVQAGGSLRLSCAASGLTFSDYAMGWYRQAPGKERAFVAAITRNGGSTRYADSVKGRFTISRDNAKITVYLQMHSLKPEDTAVYYCATDVGFGRKQRPHRPGYGYWGQGTQVTVSS”, the “polyreactivity (PSR sort gate)” value is “low polyreactivity”.

In the case of “QVQLVESGGGLVQAGGRLRLSCAASGIIFYGYAMGWYRQAPGKERELVAAITSYDGSTYYADSVKGRFTISRDNEKNTVYLQMNILKPEDTAFYYCAADYSTYEGWYWFDYWGQGTQVTVSS”, the “polyreactivity (PSR sort gate)” value was “high polyreactivity”. For the sequence “QVQLVESGGGLVQAGGSLRLSCAASGSIFGFYAMGWYRQAPWKERELVAAINSNSGSTYYADSVKGRFTISRDNAKNTVYLQMNSLKPEDTAVYYCAARSPYVTPQGFNYCGQGTQVTVSS”, the “polyreactivity (PSR sort gate)” value is “high polyreactivity”. As to “QVQLVESGGGLVQAGGTLRLSCAASGITFEHYAMGWYRQAPGKERELVAAINRSGDNTYYADSVKGRFTISRYNAKNTFYLQMNSLKPEDTAVYYCNTVELYWRGYDYWGQGTQVTVSS”, the “polyreactivity (PSR sort gate)” value is reported as “high polyreactivity”.
